The supplement of paper PMC7877785
± gives the uncertainty stated by the source.

Test: self-splicing fitness, log relative to wild type (ln ratio); higher = more splicing; Tetrahymena group I intron in knt gene, E. coli kanamycin selection, DiMSum; sequences stand for … in CUCUCU…GGAGGGAAAAGUUAUCAGGCAUGCACCUGGUAGCUAGUCUUUAAACCAAUAGAUUGCAUCGGUUUAAAAGGCAAGACCGUCAAAUUGCGGGAAAGGGGUCAACAGCCGUUCAGUACCAAGUCUCAGGGGAAACUUUGAGAUGGCCUUGCAAAGGGUAUGGUAAUAAGCUGACGGACAUGGUCCUAACCACGCAGCCAAGUCCUAAGUCAACAGAUCUUCUGUUGAUAUGGAUGCAGUUCACAGACUAAAUGUCGGUCGGGGAAGAUGUAUUCUUCUCAUAAGAUAUAGUCGGACCUCUCCUUAAUGGGAGCUAGCGGAUGAAGUGAUGCAACACUGGAGCCGCUGGGAACUAAUUUGUAUGCGAAAGUAUAUUGAUUAGUUUUGGAGUACUCGUGGUCG
Outline: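 DiMSum derived fitness as the error-weighted combination of fold changes across replicates, kanamycin versus no kanamycin, normalised to wild type. E. coli BL21(DE3) held the library, which randomised all eight P1ex-region intron nucleotides within the knt kanamycin-resistance gene on pET-22b(+). Six replicate transformations grew overnight at 37°C or 30°C on LB agar with or without 25 μg/mL kanamycin, also containing 100 μg/mL carbenicillin, 50 μM IPTG and 0.2% rhamnose, and pooled colonies were amplicon-sequenced on an Illumina HiSeq 2500.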

Sequence | self-splicing fitness (ln) (30 °C) | self-splicing fitness (ln) (37 °C)
CACUAGCAAUAUUACGACAU | -3.209 ± 0.019 | -1.97 ± 0.034
CGCAAGCAAUAUUACGAAUU | -2.55 ± 0.2 | -3.57 ± 0.46
GAAGAGCAAUAUUACGAUAU | -4.88 ± 0.36 | -1.06 ± 0.14
UGUAAGCAAUAUUACGGAAC | -2.78 ± 0.27 | -1.77 ± 0.26
AAGGAGCAAUAUUACGUCCC | 0.0851 ± 0.15 | -1.06 ± 0.23
AUUCAGCAAUAUUACGGGGU | -3.78 ± 0.39 | -2.85 ± 0.26
CCUCAGCAAUAUUACGACCU | -2.59 ± 0.16 | -2.59 ± 0.29
ACGGAGCAAUAUUACGUUGG | -3.62 ± 0.23 | -2.05 ± 0.17
CGUCAGCAAUAUUACGAUUU | -1.01 ± 0.06 | -1.11 ± 0.061
GCCAAGCAAUAUUACGCCUC | -1.32 ± 0.1 | -0.316 ± 0.1
UAAGAGCAAUAUUACGAGCC | -3.56 ± 0.25 | -2.26 ± 0.24
UGAGAGCAAUAUUACGCUGA | -2.42 ± 0.32 | -1.53 ± 0.28
AGAUAGCAAUAUUACGCGCA | -0.594 ± 0.063 | -0.129 ± 0.094
GCCAAGCAAUAUUACGCUCU | -0.234 ± 0.1 | -0.0648 ± 0.12
UUCGAGCAAUAUUACGCUUA | -2.79 ± 0.21 | -1.58 ± 0.18
GCAUAGCAAUAUUACGUUUA | -2.47 ± 0.16 | -1.61 ± 0.12
GCCGAGCAAUAUUACGUGUG | -1.43 ± 0.07 | -0.815 ± 0.081
GAUCAGCAAUAUUACGAGCU | -1.42 ± 0.15 | -0.233 ± 0.15
CCUUAGCAAUAUUACGUAAA | -3.63 ± 0.26 | -1.88 ± 0.3
GCUGAGCAAUAUUACGUCUU | -1.91 ± 0.11 | -1.17 ± 0.15
GACUAGCAAUAUUACGUGCC | -1.75 ± 0.12 | -1.58 ± 0.18
GCAUAGCAAUAUUACGCAGA | -2.62 ± 0.31 | -2.06 ± 0.17
CUCGAGCAAUAUUACGGAAG | -3.56 ± 0.2 | -1.32 ± 0.13
GCGAAGCAAUAUUACGAUUG | -2.92 ± 0.097 | -1.64 ± 0.096

Sequence | self-splicing fitness (ln) (30 °C) | self-splicing fitness (ln) (37 °C)
AUGUAGCAAUAUUACGGGCA | -0.222 ± 0.11 | 0.141 ± 0.1
CCAUAGCAAUAUUACGAACC | -1.85 ± 0.5 | –
UGGGAGCAAUAUUACGCGCA | -1.66 ± 0.15 | -1.16 ± 0.19
GAAAAGCAAUAUUACGGUGC | -2.02 ± 0.12 | -2.05 ± 0.18
CUCUAGCAAUAUUACGUGCG | -2.61 ± 0.22 | -3.7 ± 0.3
GACCAGCAAUAUUACGUUCG | -2.05 ± 0.073 | -0.063 ± 0.074
ACUUAGCAAUAUUACGCACU | -0.553 ± 0.093 | 0.532 ± 0.12
CUUAAGCAAUAUUACGAUCA | -2.93 ± 0.26 | -3.2 ± 0.33
CCUAAGCAAUAUUACGAAUC | -0.765 ± 0.2 | –
CAACAGCAAUAUUACGACGG | -0.0366 ± 0.058 | 0.186 ± 0.085
GAUAAGCAAUAUUACGUGAC | -2.55 ± 0.32 | -0.818 ± 0.3
CACCAGCAAUAUUACGACAG | 0.251 ± 0.06 | 0.634 ± 0.083
CAGAAGCAAUAUUACGGCCA | -1.5 ± 0.26 | -1.83 ± 0.21
AAAGAGCAAUAUUACGUAUC | – | -1.57 ± 0.27
CCCGAGCAAUAUUACGGCUG | -4.35 ± 0.39 | -2.72 ± 0.33
UUUGAGCAAUAUUACGUUUA | -3.32 ± 0.24 | -2.21 ± 0.23
AAAGAGCAAUAUUACGUGUU | -4.56 ± 0.36 | -2.66 ± 0.24
AUUCAGCAAUAUUACGGCAC | -0.847 ± 0.074 | -0.407 ± 0.096
UGAUAGCAAUAUUACGCGAG | -1.66 ± 0.17 | -0.803 ± 0.13
GUGGAGCAAUAUUACGAGAU | -3.23 ± 0.36 | -2.22 ± 0.41
UACAAGCAAUAUUACGGGCG | -0.448 ± 0.1 | -0.308 ± 0.11
UCCGAGCAAUAUUACGUGGA | -2.47 ± 0.17 | -2.52 ± 0.19
UUCCAGCAAUAUUACGCGAU | -2.85 ± 0.21 | -1.32 ± 0.18
CAAAAGCAAUAUUACGGUGC | -3.76 ± 0.24 | -2.8 ± 0.24
